{"source": "paper PMC8784115", "about": "(Proceedings of the National Academy of Sciences of the …, 2022)", "key": {"[1]": {"target": "T1, TAZ1 domain of CREB-binding protein (CBP), mouse CBP residues 340 to 439 (mouse, UniProt P45481 340-439)", "T1 sequence (P45481 340-439)": "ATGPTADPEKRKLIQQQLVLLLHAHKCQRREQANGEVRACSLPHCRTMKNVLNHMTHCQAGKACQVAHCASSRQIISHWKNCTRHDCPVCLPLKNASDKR", "test": "fluorescence polarisation"}, "[2]": {"target": "T1, TAZ1 domain of CREB-binding protein …", "test": "fluorescence polarisation", "remark": "listed apart in the source"}, "[3]": {"target": "T1, TAZ1 domain of CREB-binding protein …", "test": "fluorescence polarisation", "remark": "listed apart in the source"}, "[4]": {"target": "T1, TAZ1 domain of CREB-binding protein …", "test": "NMR titration"}, "[5]": {"target": "preformed complex of 15N-TAZ1 and HIF-1α (mouse | human, UniProt P45481 340-439; Q16665 776-826)", "sequence (P45481 340-439, one chain of several)": "as the sequence (P45481 340-439) above", "test": "NMR titration"}}, "note": "No end group written: not given here. Alexa594 = Alexa594 fluorescent dye", "data": [{"binder": "Alexa594-labeled HIF-1α peptide (C800V, labelled at C780) (peptide) GSHMSDLAC(Alexa594)RLLGQSMDESGLPQLTSYDVEVNAPIQGSRNLLQGEELLRALDQVN", "values": [{"measurement": "binding result", "setting": "[1]", "result": "binds"}]}, {"binder": "Alexa594-labeled CITED 216-269 peptide (labelled at C261) (peptide) GSHMSNVIDTDFIDEEVLMSLVIEMGLDRIKELPELWLGQNEFDFMTDFVC(Alexa594)KQQPSRVS", "values": [{"measurement": "binding result", "setting": "[2]", "result": "binds"}]}, {"binder": "Alexa594-labeled CITED APAA peptide (labelled at C261) (peptide) GSHMSNVIDTDFIDEEVLMSLVIEMGLDRIKEAPAAWLGQNEFDFMTDFVC(Alexa594)KQQPSRVS", "values": [{"measurement": "binding result", "setting": "[3]", "result": "binds"}]}, {"binder": "CITED APAA peptide (CITED2 216-269 with the nonproline residues of the LPEL motif mutated to alanine) (peptide) GSHMSNVIDTDFIDEEVLMSLVIEMGLDRIKEAPAAWLGQNEFDFMTDFVCKQQPSRVS", "values": [{"measurement": "binding result", "setting": "[4]", "result": "binds"}, {"measurement": "binding result", "setting": "[5]", "result": "binds"}]}]}
